Data from article PMC7268104, “WRKY Transcription Factor OsWRKY29 Represses Seed Dormancy in Rice by Weakening Abscisic Acid Response”.

biological target: OsWRKY29-MBP (Oryza sativa (rice; cv. Hwayoung?), UniProt Q6IEQ2 1-288); assay: EMSA; unlabeled probe competes dose-dependently; LightShift Chemiluminescent EMSA kit binding buffer, 1 ug protein in 20 ul, room temperature, 30 min; 6.5% native PAGE, 0.5x TBE; salt and pH not stated; conditions: protein: recombinant; tags: MBP (pMAL-c2x fusion); blunt
Sequence (Q6IEQ2 entry or part of it): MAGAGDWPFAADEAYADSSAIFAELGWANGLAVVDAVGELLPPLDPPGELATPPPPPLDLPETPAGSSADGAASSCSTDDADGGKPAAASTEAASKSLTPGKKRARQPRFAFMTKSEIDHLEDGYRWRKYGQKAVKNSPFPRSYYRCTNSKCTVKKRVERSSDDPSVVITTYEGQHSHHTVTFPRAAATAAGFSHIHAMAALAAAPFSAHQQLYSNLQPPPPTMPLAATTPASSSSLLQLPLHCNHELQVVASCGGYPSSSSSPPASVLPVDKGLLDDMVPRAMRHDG

Binder	binding result
OsABF1 promoter A1 probe (dsDNA) DNA 1: AGCGTTAAAGCCATATGTTAAGAACGCGTTGACGAGAAGCTCGAGTTTGAGGTTATGGCC DNA 2: GGCCATAACCTCAAACTCGAGCTTCTCGTCAACGCGTTCTTAACATATGGCTTTAACGCT	binds
OsVP1 promoter V3 probe (dsDNA) DNA 1: CGGTCAAAACCAGCACGCGCCGAAATCCCGTACTTCCCACTGACACGTAGGCCCCACTGTCATTGACCG DNA 2: CGGTCAATGACAGTGGGGCCTACGTGTCAGTGGGAAGTACGGGATTTCGGCGCGTGCTGGTTTTGACCG	binds
OsVP1 promoter V1 probe (dsDNA) DNA 1: TCAACCTACCATATCGCTCAAATGATTGTTGACCTGTAACACCCAACGACCTTTATTTAC DNA 2: GTAAATAAAGGTCGTTGGGTGTTACAGGTCAACAATCATTTGAGCGATATGGTAGGTTGA	binds
